Measured values as given in the RNAGym collection of RNA variant scans (doi:10.7554/elife.90254).

B1: LINE1-mini (parent)
chain: GGCAGAGCUCAACACAGCGUGGCAAAGUGGCUGUGGCUAGACUGCC

Variants of: B1
Assay: self-cleavage, relative activity (ratio to wild type); higher = more cleavage; in vitro, sequencing; the parent is a self-cleaving ribozyme

Question: Which self-cleavage does the source give for A11U A12U here?
Answer: 0.07

Question: With A14U U32G as the variant, how does the self-cleavage read?
Answer: 0.1

Question: With A16C G40C as the variant, how does the self-cleavage read?
Answer: 0.03

Question: For C13G A25U, which self-cleavage is on record?
Answer: 0.44

Question: For C18G A25U, which self-cleavage is on record?
Answer: 0.51

Question: For A6C A11G, which self-cleavage is on record?
Answer: 0.02

Question: For G2U U38C, which self-cleavage is on record?
Answer: 0.05

Question: For G2U A4C, which self-cleavage is on record?
Answer: 0.07

Question: For C3A G22C, which self-cleavage is on record?
Answer: 0.58

Question: For G27U U32G, which self-cleavage is on record?
Answer: 0.16

Question: Which self-cleavage does the source give for A6C C46U here?
Answer: 0.89

Question: For G1U A24U, which self-cleavage is on record?
Answer: 0.32

Question: For A4U U32C, which self-cleavage is on record?
Answer: 0.14

Question: Which self-cleavage does the source give for A26G G33U here?
Answer: 0.07

Question: For A6C G29A, which self-cleavage is on record?
Answer: 0.7

Question: Which self-cleavage does the source give for A11C G29U here?
Answer: 0.07

Question: With A25U U28G as the variant, how does the self-cleavage read?
Answer: 0.82

Question: Which self-cleavage does the source give for U20C A39U here?
Answer: 0.37

Question: For G29A G35U, which self-cleavage is on record?
Answer: 0.15

Question: With G29A G35C as the variant, how does the self-cleavage read?
Answer: 0.09

Question: For A12U A16G, which self-cleavage is on record?
Answer: 0.16

Question: Which self-cleavage does the source give for U9G C37G here?
Answer: 0.05

Question: For G2U A39C, which self-cleavage is on record?
Answer: 0.03

Question: With G7U C13A as the variant, how does the self-cleavage read?
Answer: 0.14

Question: For U32G C37U, which self-cleavage is on record?
Answer: 0.07

Question: With U32G C37G as the variant, how does the self-cleavage read?
Answer: 0.04

Question: Which self-cleavage does the source give for C18A A24G here?
Answer: 0.56

Question: Which self-cleavage does the source give for U38A U43A here?
Answer: 0.03

Question: With A11C G19C as the variant, how does the self-cleavage read?
Answer: 0.08

Question: With C3G U43G as the variant, how does the self-cleavage read?
Answer: 0.21

Question: With G30C A39G as the variant, how does the self-cleavage read?
Answer: 0.12

Question: With U20G G29C as the variant, how does the self-cleavage read?
Answer: 0.35

Question: Which self-cleavage does the source give for G29U U43G here?
Answer: 0

Question: Which self-cleavage does the source give for A4U A41G here?
Answer: 0.05

Question: For C8G G30U, which self-cleavage is on record?
Answer: 0.2

Question: With G17C A24G as the variant, how does the self-cleavage read?
Answer: 0.71

Question: With G17A G44A as the variant, how does the self-cleavage read?
Answer: 0.04

Question: With C8G G36U as the variant, how does the self-cleavage read?
Answer: 0.07

Question: Which self-cleavage does the source give for C8A A14U here?
Answer: 0.25

Question: With C23G G29U as the variant, how does the self-cleavage read?
Answer: 0.47

Question: For C3G C23G, which self-cleavage is on record?
Answer: 0.2

Question: For G5C A41U, which self-cleavage is on record?
Answer: 0.09

Question: With G5C A41G as the variant, how does the self-cleavage read?
Answer: 0.07

Question: With G30U U43C as the variant, how does the self-cleavage read?
Answer: 0.1

Question: With G22A C23U as the variant, how does the self-cleavage read?
Answer: 1.14

Question: For U38G G44U, which self-cleavage is on record?
Answer: 0.03

Question: Which self-cleavage does the source give for A4C U43A here?
Answer: 0.06

Question: Which self-cleavage does the source give for A6C A41U here?
Answer: 0.1

Question: With G2U U34A as the variant, how does the self-cleavage read?
Answer: 0.04

Question: For C13A U43G, which self-cleavage is on record?
Answer: 0.18

Question: Which self-cleavage does the source give for G30A C45A here?
Answer: 0.71

Question: For G27U G36C, which self-cleavage is on record?
Answer: 0.1

Question: For C37A C45G, which self-cleavage is on record?
Answer: 0.17

Question: For A4G U32C, which self-cleavage is on record?
Answer: 0.15

Question: For C3U A4U, which self-cleavage is on record?
Answer: 0.15

Question: Which self-cleavage does the source give for C3U A4C here?
Answer: 0.26

Question: With G33A C42G as the variant, how does the self-cleavage read?
Answer: 0.06

Question: Which self-cleavage does the source give for C18G U43A here?
Answer: 0.07

Question: For G1C G19U, which self-cleavage is on record?
Answer: 0.06

Question: Which self-cleavage does the source give for A6C U32A here?
Answer: 0.03

Question: For C10A U43G, which self-cleavage is on record?
Answer: 0

Question: Which self-cleavage does the source give for C10G C45A here?
Answer: 0.07

Question: For A16U, which self-cleavage is on record?
Answer: 0.15

Question: Which self-cleavage does the source give for A16C here?
Answer: 0.11

Question: Which self-cleavage does the source give for A16G G44U here?
Answer: 0.05

Question: With U9C C18U as the variant, how does the self-cleavage read?
Answer: 0.01

Question: Which self-cleavage does the source give for C31U C45A here?
Answer: 0.13

Question: For U20C A41C, which self-cleavage is on record?
Answer: 0.08

Question: For C13G C45G, which self-cleavage is on record?
Answer: 0.23

Question: With A25U U32G as the variant, how does the self-cleavage read?
Answer: 0.3

Question: Which self-cleavage does the source give for U9G C42U here?
Answer: 0.05

Question: Which self-cleavage does the source give for G27U A41G here?
Answer: 0.27

Question: With G22C G33A as the variant, how does the self-cleavage read?
Answer: 0.07

Question: Which self-cleavage does the source give for U32G here?
Answer: 0.19

Question: For G22C G40A, which self-cleavage is on record?
Answer: 0.09

Question: Which self-cleavage does the source give for G2A G35C here?
Answer: 0.34

Question: Which self-cleavage does the source give for G19A C45A here?
Answer: 0.79

Question: For G21C G27A, which self-cleavage is on record?
Answer: 0.84

Question: For G21A C46G, which self-cleavage is on record?
Answer: 1.5

Question: For G21A C46A, which self-cleavage is on record?
Answer: 1.96

Question: For G5C U38G, which self-cleavage is on record?
Answer: 0.03

Question: For G1U C42U, which self-cleavage is on record?
Answer: 0.06

Question: For C23G G44A, which self-cleavage is on record?
Answer: 0.41

Question: With C23G G44C as the variant, how does the self-cleavage read?
Answer: 0.2

Question: For C23A G40C, which self-cleavage is on record?
Answer: 0.15

Question: With C8U U28A as the variant, how does the self-cleavage read?
Answer: 0.19

Question: Which self-cleavage does the source give for G27A G44C here?
Answer: 0.65

Question: Which self-cleavage does the source give for U28C C42U here?
Answer: 0.15

Question: For A39G C46G, which self-cleavage is on record?
Answer: 0.08

Question: With G19C G44A as the variant, how does the self-cleavage read?
Answer: 0.15

Question: With C18A U28A as the variant, how does the self-cleavage read?
Answer: 0.7

Question: Which self-cleavage does the source give for C15G G40A here?
Answer: 0.08

Question: For U20C G22U, which self-cleavage is on record?
Answer: 0.4

Question: Which self-cleavage does the source give for U20G U32C here?
Answer: 0.06

Question: Which self-cleavage does the source give for A11C A24U here?
Answer: 0.11

Question: For G5C G17U, which self-cleavage is on record?
Answer: 0.04

Question: With A25G A26G as the variant, how does the self-cleavage read?
Answer: 0.34

Question: For C10G A39C, which self-cleavage is on record?
Answer: 0.02

Question: With A25G G29A as the variant, how does the self-cleavage read?
Answer: 0.32

Question: For G2C C10A, which self-cleavage is on record?
Answer: 0.03

Question: Which self-cleavage does the source give for G17C G36C here?
Answer: 0.04

Question: For A12G G35U, which self-cleavage is on record?
Answer: 0.04

Question: Which self-cleavage does the source give for A12G G35C here?
Answer: 0.05

Question: Which self-cleavage does the source give for A12G G29A here?
Answer: 0.03

Question: For C31G G40C, which self-cleavage is on record?
Answer: 0.05

Question: Which self-cleavage does the source give for C31G U32G here?
Answer: 0.08

Question: Which self-cleavage does the source give for G29U A41G here?
Answer: 0.41

Question: With U34C C46A as the variant, how does the self-cleavage read?
Answer: 0.16

Question: For C18U G30U, which self-cleavage is on record?
Answer: 0.4

Question: Which self-cleavage does the source give for A6G G35A here?
Answer: 0.05

Question: For G27C A41U, which self-cleavage is on record?
Answer: 0.25

Question: For A16C G36U, which self-cleavage is on record?
Answer: 0.07

Question: Which self-cleavage does the source give for G33C G44A here?
Answer: 0.03

Question: For G35U C42U, which self-cleavage is on record?
Answer: 0.11

Question: Which self-cleavage does the source give for G35U C42G here?
Answer: 0.05

Question: Which self-cleavage does the source give for C3U G29C here?
Answer: 0.37

Question: With G19A C46U as the variant, how does the self-cleavage read?
Answer: 1.74

Question: For U9G G27C, which self-cleavage is on record?
Answer: 0.08

Question: For A26U U28G, which self-cleavage is on record?
Answer: 1.74

Question: For G1U U38C, which self-cleavage is on record?
Answer: 0.2

Question: Which self-cleavage does the source give for G17U G36A here?
Answer: 0.09

Question: For A12G G36C, which self-cleavage is on record?
Answer: 0.04

Question: With A14U C46A as the variant, how does the self-cleavage read?
Answer: 0.4

Question: With G5U C31G as the variant, how does the self-cleavage read?
Answer: 0.05

Question: Which self-cleavage does the source give for C3A G5U here?
Answer: 0.28

Question: With U32G U38A as the variant, how does the self-cleavage read?
Answer: 0.07

Question: With A12C G36A as the variant, how does the self-cleavage read?
Answer: 0.2

Question: Which self-cleavage does the source give for C23U A39C here?
Answer: 0.29

Question: For C10U A41U, which self-cleavage is on record?
Answer: 0.16

Question: With G21C G33A as the variant, how does the self-cleavage read?
Answer: 0.8

Question: Which self-cleavage does the source give for A11U A26U here?
Answer: 0.12

Question: For C31G U43G, which self-cleavage is on record?
Answer: 0.05

Question: Which self-cleavage does the source give for G17A C18G here?
Answer: 0.32

Question: Which self-cleavage does the source give for A24G G33A here?
Answer: 0.07

Question: With A24C A25C as the variant, how does the self-cleavage read?
Answer: 0.73

Question: For U20C C23A, which self-cleavage is on record?
Answer: 0.49

Question: For U20G G35C, which self-cleavage is on record?
Answer: 0.11

Question: For A6C A24C, which self-cleavage is on record?
Answer: 0.41

Question: Which self-cleavage does the source give for A16G U43A here?
Answer: 0.02

Question: For A4U G17A, which self-cleavage is on record?
Answer: 0.06

Question: Which self-cleavage does the source give for U34G G40A here?
Answer: 0.03

Question: Which self-cleavage does the source give for A12C G21C here?
Answer: 0.03

Question: Which self-cleavage does the source give for C3A U28C here?
Answer: 0.32

Question: For A12U C45G, which self-cleavage is on record?
Answer: 0.08

Question: For C15A G22A, which self-cleavage is on record?
Answer: 0.28

Question: For G2U C13G, which self-cleavage is on record?
Answer: 0.02

Question: With U9A A25U as the variant, how does the self-cleavage read?
Answer: 0.15

Question: Which self-cleavage does the source give for G36U G40A here?
Answer: 0.13

Question: Which self-cleavage does the source give for G17C G22C here?
Answer: 0.82

Question: With A24C G30C as the variant, how does the self-cleavage read?
Answer: 0.49

Question: For C8G G22A, which self-cleavage is on record?
Answer: 0.1

Question: With A11C U32A as the variant, how does the self-cleavage read?
Answer: 0.04

Question: With A26C G35A as the variant, how does the self-cleavage read?
Answer: 0.18

Question: With U38A C45A as the variant, how does the self-cleavage read?
Answer: 0.2

Question: With G19C C31U as the variant, how does the self-cleavage read?
Answer: 0.58

Question: Which self-cleavage does the source give for C15A G36U here?
Answer: 0.06

Question: Which self-cleavage does the source give for G19C U43A here?
Answer: 0.02

Question: Which self-cleavage does the source give for A6C A12U here?
Answer: 0.16

Question: With C3A C8U as the variant, how does the self-cleavage read?
Answer: 0.69

Question: Which self-cleavage does the source give for C3A C8G here?
Answer: 0.3

Question: For G7U G30A, which self-cleavage is on record?
Answer: 0.11

Question: With C23G C45U as the variant, how does the self-cleavage read?
Answer: 0.97

Question: For A4U C15A, which self-cleavage is on record?
Answer: 0.08

Question: With G17U U43A as the variant, how does the self-cleavage read?
Answer: 0.09

Question: With C31A U43C as the variant, how does the self-cleavage read?
Answer: 0.05

Question: With C3A A6U as the variant, how does the self-cleavage read?
Answer: 0.76

Question: Which self-cleavage does the source give for U9G A41G here?
Answer: 0.08
